Experimental data from the RNAGym collection of RNA variant scans (doi:10.1073/pnas.2313332121).
Fewer inactive variants are shown than the library holds.

B1: TPR 5TU (parent)
chain: GGAUCUUCUCGAUCUAACAAAAAAGACAAAUCUGCCACAAAGCUUGAGAGCAUCUUCGGAUGCAGAGGCGGCAGCCUUCGGUGGCGCGAUAGCGCCAACGUUCUCAACUAUGACACGCAAAACGCGUGCUCCGUUGAAUGGAGUUUAUCAUG

Variants of: B1
Experiment: polymerase ribozyme fitness, log enrichment relative to wild type (log ratio); higher = more active; in vitro selection for triplet polymerase activity
Outline: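 Input and output libraries were sequenced on Illumina after a single in vitro selection round, run in triplicate on PCR-built, transcribed mutant libraries of each subunit of a heterodimeric triplet polymerase ribozyme. Selection annealed libraries to a biotinylated primer, the partner subunit and triplets, incubated them frozen at −7 °C, then gel-excised extended constructs for streptavidin-bead capture and RT-PCR. Genotypes with ≥10 input reads and ≥1 read per output were kept. Fitness is the logarithm, taken in base 2, of genotype enrichment divided by wild-type enrichment, using inverse-variance-weighted replicate averages.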

Point of comparison: GGAUCUUCAUGAUCUAACAAAAAAGACAAAUCUGCCACAAAGCUUGAGAGCAACUUCGGAUGCAGUGGCGGCAGCCUUCGGUGGCGAGAUAGCGCCAACGUUCUCAACUAUGACACGCUAAACGCAUGCUCCGUUGAAUGAAGUUUAUCAUG [U9A C10U U53A A66U C87A A119U G126A G141A], “polymerase ribozyme fitness (log ratio)” value -4.03. Against it:
- GGAUCUUCACGAUCUAACAAAAAAGACAAAUCUGCCACAAAGCUUGAGAGCACCUUCGGAUGCUGAGGCGGCAGCCUUCGGUGGCGAGAUAGCGCCAACGUUCUCAACUAUGACACGCAAAACGCGUGCUCCGUUUAAUGGAGUUUAUCGUG [U9A U53C A64U C87A G136U A150G] — lower, ≤ -4.2
- GGAUCUUCACGAUCUAACAAAAAAGACAACUCUGCCACAGCGCUUGAGAGCAUCUUUGGAUGCAGAGGCGGCAGCCUUCGGUGGCGCGAUAGCGGCAACGUUCUCAACUAUGACACGCAAAACGCGUGCUCCGUUGAAUGGAGUUUAUCAUG [U9A A30C A40G A41C C57U C95G] — lower, ≤ -4.2
- GGAUCUUCACGAUCUAACAAAGAAGACAAAUCUGCAACCAAGCUUGAGAGCAUCUUCGGAUGCAUAGGCGGCAGCCUUCGGUGGCGUGAUAGCGACAACGUUCUCAACUAUGACACGCAAAACGCAUGCUCCGUUAAACGGAGUUUAUCAUG [U9A A22G C36A A39C G65U C87U C95A G126A G136A U139C] — lower, ≤ -4.2
- GGAUCUUCACGAUCUAACAAAAAAGAGAAAUCUGCCACAAAGCUUGAGAGCAUCUUCGGAUGCAGAGGCGGCUGCCUUCGGUGGCGCGAUAGUGCCAACGUGCUCAACUAUGACACCCAAAACGCGUGCUCCGUUGAAUGGAGUUUAUCAUG [U9A C27G A73U C93U U102G G117C] — lower, ≤ -4.2
- GGAUCUUCCCGAUCUAACAACAAAGACAAAUCUGCCACAAAGCUUGAGAGCAUCUUAGGAUGCAGAGGCGGCAGCCUUCGGUGGCGCGAUAGAGCCAACGUUCUCAACUAUGACCCGCAAAACGCGUGCUCCGUUGAAUGGAGUUUAUCAUG [U9C A21C C57A C93A A115C] — within 0.2 log units, -4
- GGAUCUUUUCGAUCAAACAAAAAAGACAAAUCUGCCACAAUGCUUGAGAGCAUCUUCGGAUGCAGAGGCGGCAGCCUUCGGUGGAGCGAUAGCGCCAACGUUCUCAACUAUGACACGCAAAACGCAUGCUCCGUUGAAUGGAGUUUAUCAUG [C8U U15A A41U C85A G126A] — within 0.2 log units, -4.06
- GGAUCUUCACGAUCUAACAAAAAAGAAAAAUCUGCCACAUAGCUUGAGAGCAUCUUCGGAUGCAGAGGCGGCAGCCUUCGGUGGCGCGAUAGCGCCAACGUUCUCAACUAUGACACGCAAAACGCGUGCUCCGUUGAAUGGAGUUUAUCAUG [U9A C27A A40U] — lower, ≤ -4.2
- GGAUCUUCCCGAUCUAACGAAAAAGACAAGUCUGACACAAAGCUUGAGAGCAUCUACGGAUGCAGAGGCGGCAGCCUUCGGUGGCGGGAUAGCGCCAACGUUCUCAACUAUGACACUCAAAACGCGUGCUCCGUUGAAUGGAGUUUACCAUG [U9C A19G A30G C35A U56A C87G G117U U148C] — lower, ≤ -4.2
- GGAUCUUCACGAUCUAACAAAAAAGACAAAUCUGUCACAAAGCUUGAGAGCAUCUUCGGAUGCAGAGGCGGCAGCCUUCGGUGGCGCGAUAGCGCCAACGUUCUCAACUAUGACACGCAAUACGCGUGCUCCGUUAAAUGGAGUUUAUCAUG [U9A C35U A121U G136A] — lower, ≤ -4.2
- GGAUCUUCACGAUCUAACAUAAAAGACAAAUCUGCAACAAAGCUUGAGAGCCUCUUCGGAUGCAGAGGCGGCAGCCUUCGGUGGCGCGAUAGCGCCAACGUUCUCAACUAUGUCACGCAAAACCCGUGCUCCGUUGAAUGGAGUUUAUCAUG [U9A A20U C36A A52C A113U G124C] — lower, ≤ -4.2
- GGAUCUUCACGUUCUAACAAAAAAGACAAAUCUGCCACAAAGCUUGAGAGCAUCUUCGGAUGCAGAGGCGGCAGCCUUCGGUGGCGCGAUAGCGCCAACGUUCUCAACUAUGAAACGCAAAACGAGUGCUCCGUUGAAUGGAGUUUAUCAUG [U9A A12U C114A C125A] — lower, ≤ -4.2
- GGAUCUUCACGAUCUAACAAAAAAGACAAAUCUGCCACAAAGCUUGAGAGCAUCUUCGGAUGCAGAGGCGGCAGCCUUCGGUAGCGCGAUAGCGCCAACGUUCUCAACUAUGACACGCAAAACGCGUGCUCCGUUGAAUGGAGUUUAUCAUG [U9A G83A] — within 0.2 log units, -4.06
- GGAUCUUCACGAUCUAACAAAAAAGACAAAGCUGCAACAAAGCUUGAGAGCAUCUUCGGAUGCAGAGGCGGCAGCCUUCGGUGGCGCGAUAGGGCCAACGUUGUCAACUAUGACACGCAAAACGCGUGCUCCGUUGAAUCGAGUUUAUCAUG [U9A U31G C36A C93G C103G G140C] — lower, ≤ -4.2
- GGAUCUUUUCGACAUAACAUAAAAGACAAAUCUGCCACAAAGCUUGAGACCAUCUUCGGAUGAAGAGGCGACAGCCUUGGGUGGCGCGAUAUCGCCAACGUUCUCAACUAUGACACGCCAAACGCGUGCUCCGUUGAAUGAAGUUUAUCAUG [C8U U13C C14A A20U G50C C63A G71A C79G G92U A119C G141A] — lower, ≤ -4.2
- GGAUCUUCACGAUCUAACAAAAAAGACAAAUCUGCCACAAAGCUUGAGAGCAUCUUCGGAUGCAGAGGCGGCAGCCUCCGGUGUCGCGAUAGCGCCAAGGUUCUCAACUAUGUCCCUCAAAACGCGUGCUCCGUCGAAUGGAGAUUAGCAUG [U9A U78C G84U C99G A113U A115C G117U U135C U144A U148G] — lower, ≤ -4.2
- GGAUCUUUUCGAUCUAACAAAAAAGACAAAAGUGCCACAAAGCUUGAGAGCAUUUUCGGAUGCAGAGGCGGCAGCCUUCGGUUGCGCGAUAGCGCCAACGUUCACACCUAUGACACGCAAAACGCGUGCUCCGUUGAAUGGAGUUUAUCAUG [C8U U31A C32G C54U G83U U104A A107C] — lower, ≤ -4.2
- GGAUCUUCACGAUCUAACAAAAAAGACAAAUCUGCCACAAAGCUUGAGAGCAUCUUCGAAUGCAGAGGCGGCAGCCUUCGGUGGCGAGAUAGCGCCAACGUUCUCAACUAUGACACGCAAAACGCGUGCUCCGUUGAAUGGAGUUUAUCAUG [U9A G59A C87A] — lower, ≤ -4.2
- GGAUCUUUUCGACCUAACAAAAAAGAAAAAUCUGCCACAAAGCUUGAGAACAUCUUCGGAAUCAGAGGCGGCAGCCUUCGGUGGCGCGAUAGUGCCAACGUUCUCCACUGUGACACGCAAAACGGGUGCUCCGUUGAAUGGAGUUUAUCAUG [C8U U13C C27A G50A U61A G62U C93U A106C A110G C125G] — lower, ≤ -4.2
